Source: article PMC11191641

Biological target: His-tagged ferritin-based nanoparticle (FNP): Helicobacter pylori ferritin with N-terminal domain B (S. aureus | Helicobacter pylori)
Test: BLI
Details: Fc fusion

“NiV-B-G-Fc: Nipah virus Bangladesh attachment glycoprotein G (residues 176-602) fused with a C-terminal human IgG1 Fc (from UniProt P01857)” was tested, and the Kd was 9.46 nM.
